Data set [1] deals with the molecule itself. Description: cross-linking + SEC; chemical crosslinking and gel filtration of the extracellular domain of MGL expressed in bacteria. On the technique in general: SEC sorts molecules by how far they enter the pores of the column.
The next data set deals with T1, soybean agglutinin (soybean, UniProt P05046 33-285, a single, uniform Man9GlcNAc2 oligosaccharide on each subunit).
T1 construct: also called SBA; intact soybean agglutinin
Description: SPR; BiaCore 3000, CM5 chip; SBA or its glycopeptide amine-coupled, monomeric CRD of DC-SIGN flowed over; steady state, simple saturation model with linear background; 10 mM Hepes, 150 mM NaCl, 5 mM CaCl2, 0.005% P20, pH 7.4, 25 °C. Particulars: both partners purified. (SPR reads the build-up and loss of mass on a sensor chip optically.)

T1 sequence (P05046 33-285): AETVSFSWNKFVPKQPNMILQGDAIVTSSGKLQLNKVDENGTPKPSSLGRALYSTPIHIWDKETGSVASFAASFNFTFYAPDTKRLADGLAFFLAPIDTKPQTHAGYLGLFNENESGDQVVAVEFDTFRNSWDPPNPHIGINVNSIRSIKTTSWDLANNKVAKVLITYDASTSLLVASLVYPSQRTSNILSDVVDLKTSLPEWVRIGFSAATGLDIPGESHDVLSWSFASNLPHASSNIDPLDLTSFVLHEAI

B1: trimeric extracellular domain (ECD) of rat macrophage galactose lectin (MGL) (domain or fragment)
chain: AQNSQLRRDLETLRTTLDNTTSNTKAELQALASRGDSLQTGINSLKVEVDDHGQELQAGRGLSQKVASLESTVEKKEQTLRTDLSEITDRVQQLGKDLKTLTCQLASLKNNGSAVACCPLHWMEHEGSCYWFSQSGKPWPEADKYCQLENSNLVVVNSLAEQNFLQTHMGSVVTWIGLTDQNGPWRWVDGTDYEKGFTHWAPKQPDNWYGHGLGGGEDCAHFTSDGRWNDDVCQRPYRWVCEMKLAKDS
notes: extra alanine residue appended at the N-terminus; rat macrophage galactose lectin, extracellular domain from residue 59 to the C-terminus; also called extracellular domain of MGL; source: expressed in bacteria, T7 promoter system
In the case of B1, the stoichiometry N – broadly, a count of units in the complex or per binding partner – in data set [1] worked out at 3.

B2: monomeric carbohydrate-recognition domain (CRD) from DC-SIGN (domain or fragment, UniProt Q9NNX6 250-404, looked up)
chain: ERLCHPCPWEWTFFQGNCYFMSNSQRNWHDSITACKEVGAQLVVIKSAEEQNFLQLQSSRSNRFTWMGLSDLNQEGTWQWVDGSPLLPSFKQYWNRGEPNNVGEEDCAEFSGNGWNDDKCNLAKFWICKKSAASCSRDEEQFLSPAPATPNPPPA
notes: DC-SIGN, carbohydrate-recognition domain; it calls the CRD monomeric; also called monomeric CRD; dendritic cell-specific intercellular adhesion molecule 3-grabbing nonintegrin CRD
For B2, binding with soybean agglutinin was characterised by a dissociation constant (Kd) of 4 µM. This counts as single-digit micromolar.

The record behind these values is publication PMC2824085, “Identification of Novel Contributions to High-affinity Glycoprotein–Receptor Interactions using Engineered Ligands” (Journal of Molecular Biology, 2010).
